The source of these data is patent publication US20220185871A1.

In this experiment the target is Man9-V3 glycopeptide. The experiment in a line: BLI (Octet Red96), biotinylated Man9-V3 on streptavidin sensors, antibody in solution, bivalent avidity model. (Biolayer interferometry detects binding as a change in optical thickness at a sensor tip.)

In turn, DH270.1 (antibody) registered a Kd of 0.331 µM. DH270.6 (antibody) returned a Kd of 0.188 µM.
